Reference: patent publication US20180364250

Target: ubiquitin-D77

B1: YUH1 (protein)
chain: MSGENRAVVPIESNPEVFTNFAHKLGLKNEWAYFDIYSLTEPELLAFLPRPVKAIVLLFPINEDRKSSTSQQITSSYDVIWFKQSVKNACGLYAILHSLSNNQSLLEPGSDLDNFLKSQSDTSSSKNRFDDVTTDQFVLNVIKENVQTFSTGQSEAPEATADTNLHYITYVEENGGIFELDGRNLSGPLYLGKSDPTATDLIEQELVRVRVASYMENANEEDVLNFAMLGLGPNWE
- fluorescence intensity over time (real-time deubiquitinase assay with 500 nM ubiquitin-D77, 10 nM fluorescein-tagged ubiquitin, 10 nM tIVR): Activity of YUH1 released ubiquitin proteins from conjugation to aspartic acid (i.e., the D77 residue), and thus increased the concentration of free ubiquitin protein
